The data set deals with the molecule itself. Put plainly: cryo-EM structure.

B1: major pilin PilA of Myxococcus xanthus (MXAN_5783), mature, as the subunit of the type IV pilus (natural protein, UniProt Q59589 13-220, looked up)
chain: FTLIELMIVVAIIGILAAIAIPNFIKFQARSKQSEAKTNLKALYTAQKSFFSEKDRYSDFANEIGFAPERGNRYGYRVSAAAGDCEVRNAADLPVPAAGVPCISNDSFRFGANSAIDDPTPVVARFVPQGAAGWNTTLGVQPTIADCPNCNFFAGARGNADNEATFDDWVIAGFEGSGQVGPCSEAGNVASGTPYNTRNDVACDGAAQ
For the protein B1, the binding result is “binds”.

These data come from doi:10.1101/2023.07.22.550172 (bioRxiv, 2023).
